Holding throughout (experiment): ELISA, antibody coated, OX40-ECD.His mutant supernatant; relative to silent alanine substitutions;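 note: captured OX40 mutant protein detected with HRP-labelled anti-His antibody, absorbance read-out, scaled to the mean signal of control mutants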
Background: An ELISA detects its analyte on a solid surface through an enzyme-linked reagent.

In one experiment the target is T1, human OX40-ECD.His G70A (human, UniProt P43489 29-214).
T1 construct: extracellular domain; not shown: C-terminal His-tag
T1 sequence (looked up): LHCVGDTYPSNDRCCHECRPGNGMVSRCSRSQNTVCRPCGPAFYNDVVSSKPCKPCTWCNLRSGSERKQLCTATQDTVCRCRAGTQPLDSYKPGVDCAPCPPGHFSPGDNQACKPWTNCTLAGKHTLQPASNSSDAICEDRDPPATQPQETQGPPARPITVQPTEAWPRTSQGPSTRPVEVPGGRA

The target in another experiment is T2, human OX40-ECD.His H30A (human, UniProt P43489 29-214).
T2 construct: extracellular domain; not shown: C-terminal His-tag
T2 sequence (looked up): T1 sequence (looked up) with H2A, A42G

The target of another experiment is T3, human OX40-ECD.His P115A (human, UniProt P43489 29-214).
T3 construct: extracellular domain; not shown: C-terminal His-tag
T3 sequence (looked up): T1 sequence (looked up) with A42G, P87A

The next experiment addresses T4, human OX40-ECD.His V76A (human, UniProt P43489 29-214).
T4 construct: extracellular domain; not shown: C-terminal His-tag
T4 sequence (looked up): T1 sequence (looked up) with A42G, V48A

Another experiment has as its target T5, human OX40-ECD.His N146A (human, UniProt P43489 29-214).
T5 construct: extracellular domain; not shown: C-terminal His-tag
T5 sequence (looked up): T1 sequence (looked up) with A42G, N118A

Another experiment has as its target T6, human OX40-ECD.His G131A (human, UniProt P43489 29-214).
T6 construct: extracellular domain; not shown: C-terminal His-tag
T6 sequence (looked up): T1 sequence (looked up) with A42G, G103A

The target in another experiment is T7, human OX40-ECD.His N50A (human, UniProt P43489 29-214).
T7 construct: extracellular domain; not shown: C-terminal His-tag
T7 sequence (looked up): T1 sequence (looked up) with N22A, A42G

The next experiment addresses T8, human OX40-ECD.His P130A (human, UniProt P43489 29-214).
T8 construct: extracellular domain; not shown: C-terminal His-tag
T8 sequence (looked up): T1 sequence (looked up) with A42G, P102A

The target in the next experiment is T9, human OX40-ECD.His F71A (human, UniProt P43489 29-214).
T9 construct: extracellular domain; not shown: C-terminal His-tag
T9 sequence (looked up): T1 sequence (looked up) with A42G, F43A

The next experiment has as its target T10, human OX40-ECD.His P83A (human, UniProt P43489 29-214).
T10 construct: extracellular domain; not shown: C-terminal His-tag
T10 sequence (looked up): T1 sequence (looked up) with A42G, P55A

Where a chain is given by its changes, count along the chain named.

Description for human OX40-ECD.His F71A: (§1) After interacting with the supernatant that contains quantified OX40 mutants or human OX40-ECD.His protein, HRP conjugated anti-His antibody (1:5000, GenScript-A00612, CHN) was added as detection antibody. Absorbance was normalized according to the average of control mutants.
Description for human OX40-ECD.His G131A: as §1
Description for human OX40-ECD.His G70A: as §1
Description for human OX40-ECD.His H30A: as §1
Description for human OX40-ECD.His N146A: as §1
Description for human OX40-ECD.His N50A: as §1
Description for human OX40-ECD.His P115A: as §1
Description for human OX40-ECD.His P130A: as §1
Description for human OX40-ECD.His P83A: as §1
Description for human OX40-ECD.His V76A: as §1

B1: 1.134.9-u1-IgG1L (antibody, V domains shown)
VH: QVQLQESGPGLVKPSGTLSLTCAVSGGSISSYNWWSWVRQPPGKGLEWIGEIYHGGNTNYNPSLKSRVTMSVDNSKNQFSLKLSSVTAADTAVYYCARAPGDWGGSPYFDFWGQGTLVTVSS
VL: SSELTQDPAVSVALGQTVRITCQGDNLRTYYASWYQQKPGQAPILLIYGRNKRPSGIPDRFSGSSSGNTASLTITGAQAEDEAAYYCNSRDSSGNPVVFGGGTKLTVL
notes: fully human IgG1, lambda
B1: the “Fold Change” value stood at 0.511 with human OX40-ECD.His G70A; 1.01 in the experiment with human OX40-ECD.His H30A; 0.632 with human OX40-ECD.His P115A; 1.02 with human OX40-ECD.His V76A; 0.73 in the experiment with human OX40-ECD.His N146A; 0.958 with human OX40-ECD.His G131A. Moreover, the “Fold Change” value with human OX40-ECD.His N50A was determined as 0.961; in the experiment with human OX40-ECD.His P130A, 1.01; in the experiment with human OX40-ECD.His F71A it was 0.866; in the experiment with human OX40-ECD.His P83A it was 0.918.

Values taken from patent publication US20210171647A1 (WUXI BIOLOGICS SHANGHAI, published 2021).
